Values of other authors, collected in article PMC12298957.

Biological target: FGFR2 (Homo sapiens) (UniProt P21802)
UniProt P21802, sequence (P21802 22-377): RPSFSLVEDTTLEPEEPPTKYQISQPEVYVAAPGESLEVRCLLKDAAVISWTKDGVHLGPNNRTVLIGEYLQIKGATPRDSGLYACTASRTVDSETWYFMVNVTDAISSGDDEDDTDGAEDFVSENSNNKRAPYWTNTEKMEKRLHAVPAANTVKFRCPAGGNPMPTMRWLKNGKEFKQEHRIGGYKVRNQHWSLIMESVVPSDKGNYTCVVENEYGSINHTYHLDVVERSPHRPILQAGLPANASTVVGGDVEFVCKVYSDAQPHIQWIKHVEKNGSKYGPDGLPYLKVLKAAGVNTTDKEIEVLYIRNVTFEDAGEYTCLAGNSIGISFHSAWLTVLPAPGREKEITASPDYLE

- Kd: 1.4 µM
Substance: WRARVPL peptide
